Tests used:
[1] = molecular target: T1, wild type chromodomain of CBX1 (Chromobox protein 1) (UniProt P83916 20-73); experiment: ITC
[2] = molecular target: CBX1 chromodomain Y26AzF/F50AzF (UniProt P83916 20-73, Y26AzF, 4-azido-L-phenylalanine (AzF) at 26 and at 50); experiment: fluorescence polarisation
[3] = molecular target: CBX1 chromodomain Y26AzF/D54AzF (UniProt P83916 20-73, Y26AzF, 4-azido-L-phenylalanine (AzF) at 26 and at 54); experiment: fluorescence polarisation
[4] = molecular target: T1, wild type chromodomain of CBX1 …; experiment: fluorescence polarisation

Row | Kd [1] [µM] | Kd [2] [µM] | Kd [3] [µM] | Kd [4] [µM] | Binder
1 | 5.3 ± 0.4 |  |  |  | ARTKQTARKSTGGKA (trimethyllysine at K9) [H3K9me3 peptide 3 (non-TAMRA)]
2 |  | 48.9 ± 8.7 | 50.8 ± 5.7 | 1.7 ± 0.2 | ARTKQTARKSTGGKA (trimethyllysine at K9; tetramethyl rhodamine (TAMRA) at the N-terminus) [TAMRA-H3K9me3 tracer peptide 2]

From PMC7573786 (Chemical communications (Cambridge, England), 2020)
